This test addresses T1, Human OX40L (antigen of the ForteBio affinity assay) (human, UniProt P23510 51-183, limits assumed).
T1 construct: It may be the Acro His-tagged protein, but nothing ties it to that; also called CD252; CD134L
T1 sequence (looked up): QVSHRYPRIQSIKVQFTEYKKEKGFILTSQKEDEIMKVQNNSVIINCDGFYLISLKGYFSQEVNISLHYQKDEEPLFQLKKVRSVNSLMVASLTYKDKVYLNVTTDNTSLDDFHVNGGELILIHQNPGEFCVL
In words: ForteBio (biolayer interferometry). (In BLI a coated tip is dipped into the sample, and binding shifts an interference pattern.)

One may read the Kd as the concentration at which binding is half-saturated. A lower Kd goes with a tighter complex.

B1: HZ22 (antibody, human IgG4 S228P, kappa, V domains shown)
VH: QVQLQESGPGLVKPSQTLSLTCTVSGYAVTGDYAWSWIRQPPGKRLEWIGYISSSAGTNYNPSLKSRVTISVDTSKNQFSLKLSSVTAADTAVYYCARDLYYGGRNQWYFDVWGQGTLVTVSS
VL: DIQMTQSPSSLSASVGDRVTITCSATSSIIYMHWYQQKPGKAPKLLIYDTSKLPSGVPSRFSGSGSGTDFTLTISSLQPEDFATYYCHQRSSFPFTFGGGTKVEIKR
notes: Humanized antibody expressed in HEK293; also called humanized anti-OX40L antibody
With B1, the Kd was 0.379 nM.

B2: HZ18 (antibody, human IgG4 S228P, kappa, V domains shown)
VH: EVQLVQSGAEVKKPGATVKISCKVSGYSFTGYRIHWVQQAPGKGLEWMGYVDPYDDKTDYSQKSKGRVTITADTSTDTAYMELSSLRSEDTAVYYCAREGFAYWGQGTLVTVSS
VL: DIQMTQSPSSLSASVGDRVTITCTSSSSLRYMHWYQQKPGKAPKLLIYNTFDLASGVPSRFSGSGSGTDFTLTISSLQPEDFATYYCQQRTTYPPTFGQGTKLEIKR
notes: as for B1
Molecule B2 gave a Kd of 0.307 nM.

The values are drawn from EP4755917A1 (Fortvita Biologics Inc., dated 2026).
